In PMC8844075, “Structural basis of neuropeptide Y signaling through Y1 receptor” (Nature Communications, 2022):

target: Y1R-eYFP (wild-type Y1R) (human) (UniProt P25929)
Sequence (P25929 whole entry): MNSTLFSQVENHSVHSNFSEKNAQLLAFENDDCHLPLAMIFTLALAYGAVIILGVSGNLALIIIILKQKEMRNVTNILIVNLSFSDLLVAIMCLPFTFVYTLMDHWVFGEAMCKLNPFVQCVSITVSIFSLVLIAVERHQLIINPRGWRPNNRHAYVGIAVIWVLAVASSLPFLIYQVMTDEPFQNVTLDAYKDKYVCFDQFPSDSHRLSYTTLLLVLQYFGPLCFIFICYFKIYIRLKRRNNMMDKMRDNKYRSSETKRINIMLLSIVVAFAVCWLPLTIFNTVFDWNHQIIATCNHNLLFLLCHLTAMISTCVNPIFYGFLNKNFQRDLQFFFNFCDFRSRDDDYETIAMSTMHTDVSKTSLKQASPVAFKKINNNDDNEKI

Chain of PYY(3–36) (P10082 31-64): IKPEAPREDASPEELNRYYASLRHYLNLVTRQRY
Chain of peptide YY (PYY) (P10082 29-64): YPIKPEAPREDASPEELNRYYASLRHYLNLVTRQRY

Ca2+ signalling assay in HEK293T cells, EC50	Substance
86 nM	NPY(3–36) (from UniProt P01303 31-64) (peptide)
77 nM	PYY(3–36) (from UniProt P10082 31-64) (peptide)
6.1 nM	peptide YY (PYY) (from UniProt P10082 29-64)
